One block for each binder: values may come before it.
Columns and labels:
Assay in all cases: cell-based or functional assay
[1] = target: mismatched peptide #15 …
[2] = target: mismatched peptide #31 …
[3] = target: mismatched peptide #41 …
[4] = target: mismatched peptide #45 …
[5] = target: mismatched peptide #62 …
[6] = target: mismatched peptide #76 …
[7] = target: mismatched peptide #79 …
[8] = target: mismatched peptide #84 …
[9] = target: mismatched peptide #160 …
[10] = target: mismatched peptide #221 …
[11] = target: mismatched peptide #228 …
[12] = target: mismatched peptide #243 …
[13] = target: mismatched peptide #244 …
[14] = target: mismatched peptide #246 …
[15] = target: mismatched peptide #247 …
[16] = target: mismatched peptide #257 …
[17] = target: mismatched peptide #278 …
[18] = target: mismatched peptide #323 …
[19] = target: mismatched peptide #324 …
[20] = target: mismatched peptide #9 …
[21] = target: mismatched peptide #47 …
[22] = target: mismatched peptide #116 …
[23] = target: mismatched peptide #236 …
[24] = target: mismatched peptide #239 …
[25] = target: mismatched peptide #240 …
[26] = target: mismatched peptide #265 …
[27] = target: mismatched peptide #280 …

IFN-γ release (IFNg-ELISA), donor MIT 045 [1]: 0 pg/mL
IFN-γ release (IFNg-ELISA), donor MIT 045 [2]: 0 pg/mL
IFN-γ release (IFNg-ELISA), donor MIT 045 [3]: 0 pg/mL
IFN-γ release (IFNg-ELISA), donor MIT 045 [4]: 0 pg/mL
IFN-γ release (IFNg-ELISA), donor MIT 045 [5]: 0 pg/mL
IFN-γ release (IFNg-ELISA), donor MIT 045 [6]: 0 pg/mL
IFN-γ release (IFNg-ELISA), donor MIT 045 [7]: 0 pg/mL
IFN-γ release (IFNg-ELISA), donor MIT 045 [8]: 0 pg/mL
IFN-γ release (IFNg-ELISA), donor MIT 045 [9]: 0 pg/mL
IFN-γ release (IFNg-ELISA), donor MIT 045 [10]: 0 pg/mL
IFN-γ release (IFNg-ELISA), donor MIT 045 [11]: 0 pg/mL
IFN-γ release (IFNg-ELISA), donor MIT 045 [12]: 0 pg/mL
IFN-γ release (IFNg-ELISA), donor MIT 045 [13]: 0 pg/mL
IFN-γ release (IFNg-ELISA), donor MIT 045 [14]: 0 pg/mL
IFN-γ release (IFNg-ELISA), donor MIT 045 [15]: 0 pg/mL
IFN-γ release (IFNg-ELISA), donor MIT 045 [16]: 0 pg/mL
IFN-γ release (IFNg-ELISA), donor MIT 045 [17]: 0 pg/mL
IFN-γ release (IFNg-ELISA), donor MIT 045 [18]: 0 pg/mL
IFN-γ release (IFNg-ELISA), donor MIT 045 [19]: 0 pg/mL
B1: NY-ESO specific TCR (T11.8-10-17) with Uni-TABS epitope V1 at A245 in loop 2 of TRBC (TCR)
TCR alpha: QKEVEQNSGPLSVPEGAIASLNCTYSDRGSQSFFWYRQYSGKSPELIMFIYSNGDKEDGRFTAQLNKASQYVSLLIRDSQPSDSATYLCAADDKIIFGKGTRLHILPNIQNPDPAVYQLRDSKSSDKSVCLFTDFDSQTNVSQSKDSDVYITDKTVLDMRSMDFKSNSAVAWSNKSDFACANAFNNSIIPEDTFFPSSDVPCDVKLVEKSFETDTNLNFQNLSVIGFRILLLKVAGFNLLMTLRLWSS
TCR beta: DAGVIQSPRHEVTEMGQEVTLRCKPISGHDYLFWYRQTMMRGLELLIYFNNNVPIDDSGMPEDRFSAKMPNASFSTLKIQPSEPRDSAVYFCASSRGGSGYTFGSGTRLTVVEDLNKVFPPEVAVFEPSKAEIAHTQKATLVCLATGFFPDHVELSWWVNGKEVHSGVSTDPQPLKEQPALNDSRYCLSSRLRVSATFWQNPRNHFRCQVQFYGLSENDEWTQDRAGSGDKGEVPKDRFSAGSGKPVTQIVSAEAWGRADCGITSASYHQGVLSATILYEILLGKATLYAVLVSALVLMAMVKRKDF

IFN-γ release (IFNg-ELISA), donor MIT038 [20]: 258 pg/mL
IFN-γ release (IFNg-ELISA), donor MIT038 [1]: 520 pg/mL
IFN-γ release (IFNg-ELISA), donor MIT 045 [1]: 306 pg/mL
IFN-γ release (IFNg-ELISA), donor MIT038 [2]: 2420 pg/mL
IFN-γ release (IFNg-ELISA), donor MIT 045 [2]: 1560 pg/mL
IFN-γ release (IFNg-ELISA), donor MIT038 [3]: 555 pg/mL
IFN-γ release (IFNg-ELISA), donor MIT 045 [3]: 680 pg/mL
IFN-γ release (IFNg-ELISA), donor MIT038 [4]: 1410 pg/mL
IFN-γ release (IFNg-ELISA), donor MIT 045 [4]: 1520 pg/mL
IFN-γ release (IFNg-ELISA), donor MIT 045 [21]: 530 pg/mL
IFN-γ release (IFNg-ELISA), donor MIT038 [5]: 942 pg/mL
IFN-γ release (IFNg-ELISA), donor MIT 045 [5]: 918 pg/mL
IFN-γ release (IFNg-ELISA), donor MIT038 [6]: 825 pg/mL
IFN-γ release (IFNg-ELISA), donor MIT 045 [6]: 939 pg/mL
IFN-γ release (IFNg-ELISA), donor MIT038 [7]: 370 pg/mL
IFN-γ release (IFNg-ELISA), donor MIT 045 [22]: 257 pg/mL
IFN-γ release (IFNg-ELISA), donor MIT038 [9]: 2800 pg/mL
IFN-γ release (IFNg-ELISA), donor MIT 045 [9]: 2840 pg/mL
IFN-γ release (IFNg-ELISA), donor MIT038 [10]: 900 pg/mL
IFN-γ release (IFNg-ELISA), donor MIT 045 [10]: 889 pg/mL
IFN-γ release (IFNg-ELISA), donor MIT038 [11]: 484 pg/mL
IFN-γ release (IFNg-ELISA), donor MIT 045 [11]: 1200 pg/mL
IFN-γ release (IFNg-ELISA), donor MIT038 [23]: 476 pg/mL
IFN-γ release (IFNg-ELISA), donor MIT 045 [23]: 400 pg/mL
IFN-γ release (IFNg-ELISA), donor MIT038 [24]: 312 pg/mL
IFN-γ release (IFNg-ELISA), donor MIT038 [25]: 386 pg/mL
IFN-γ release (IFNg-ELISA), donor MIT038 [12]: 499 pg/mL
IFN-γ release (IFNg-ELISA), donor MIT 045 [12]: 356 pg/mL
IFN-γ release (IFNg-ELISA), donor MIT038 [13]: 387 pg/mL
IFN-γ release (IFNg-ELISA), donor MIT 045 [13]: 261 pg/mL
IFN-γ release (IFNg-ELISA), donor MIT038 [14]: 345 pg/mL
IFN-γ release (IFNg-ELISA), donor MIT038 [15]: 537 pg/mL
IFN-γ release (IFNg-ELISA), donor MIT 045 [15]: 372 pg/mL
IFN-γ release (IFNg-ELISA), donor MIT038 [16]: 407 pg/mL
IFN-γ release (IFNg-ELISA), donor MIT038 [26]: 400 pg/mL
IFN-γ release (IFNg-ELISA), donor MIT038 [17]: 442 pg/mL
IFN-γ release (IFNg-ELISA), donor MIT038 [27]: 256 pg/mL
IFN-γ release (IFNg-ELISA), donor MIT038 [18]: 3170 pg/mL
IFN-γ release (IFNg-ELISA), donor MIT 045 [18]: 3000 pg/mL
IFN-γ release (IFNg-ELISA), donor MIT038 [19]: 757 pg/mL
IFN-γ release (IFNg-ELISA), donor MIT 045 [19]: 628 pg/mL
B2: NY-ESO specific TCR (T11.8-10-17) with Uni-TABS epitope V1 at A199 in loop 1 of TRBC (TCR)
TCR alpha: B1 TCR alpha
TCR beta: DAGVIQSPRHEVTEMGQEVTLRCKPISGHDYLFWYRQTMMRGLELLIYFNNNVPIDDSGMPEDRFSAKMPNASFSTLKIQPSEPRDSAVYFCASSRGGSGYTFGSGTRLTVVEDLNKVFPPEVAVFEPSKAEIAHTQKATLVCLATGFFPDHVELSWWVNGKEVHSGVSTDPQPLKEQPAGSGDKGEVPKDRFSAGSGLNDSRYCLSSRLRVSATFWQNPRNHFRCQVQFYGLSENDEWTQDRAKPVTQIVSAEAWGRADCGITSASYHQGVLSATILYEILLGKATLYAVLVSALVLMAMVKRKDF
